# Results from the supplement of paper PMC9112550, “Optimization of the antimicrobial peptide Bac7 by deep mutational scanning” (BMC Biology, 2022).
# Tested on: Escherichia coli TOP10
# Test: shrunken log2 fold change of peptide-encoding DNA abundance (4.5 h post-induction vs induction); higher = less antimicrobial activity (less host growth inhibition)
# Conditions: time post-induction: 4.5 h; library: site-saturation at positions 5, 18, 19, 20
# 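Note: peptides expressed intracellularly from a pBAD plasmid library in pooled LB shake-flask culture, induced with 0.3% L-arabinose, DNA abundance read by NGS, three biological replicates, DESeq2 with apeglm shrinkage.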
row,Sequence,shrunken log2 fold change
1,RRIRSRPPRLPRPRPRPMCNPRP,-0.287
2,RRIRDRPPRLPRPRPRPLNDPRP,-0.172
3,RRIRQRPPRLPRPRPRPFDAPRP,-0.0632
4,RRIRQRPPRLPRPRPRPRPMPRP,0.303
5,RRIRYRPPRLPRPRPRPPECPRP,0.0463
6,RRIRVRPPRLPRPRPRPKEEPRP,0.00911
7,RRIRQRPPRLPRPRPRPVCVPRP,0.18
8,RRIRMRPPRLPRPRPRPMQEPRP,0.0303
9,RRIRARPPRLPRPRPRPCYWPRP,-0.000727
10,RRIRRRPPRLPRPRPRPYNMPRP,-0.499
11,RRIRFRPPRLPRPRPRPMLNPRP,-0.574
12,RRIRMRPPRLPRPRPRPNFPPRP,-0.186
13,RRIRCRPPRLPRPRPRPQFEPRP,0.000801
14,RRIRKRPPRLPRPRPRPTGRPRP,0.609
15,RRIRPRPPRLPRPRPRPKYTPRP,-0.414
16,RRIRVRPPRLPRPRPRPQYPPRP,-0.101
17,RRIRKRPPRLPRPRPRPHEMPRP,0.0317
18,RRIRDRPPRLPRPRPRPRYSPRP,-0.662
19,RRIRSRPPRLPRPRPRPDGQPRP,-0.00208
20,RRIRHRPPRLPRPRPRPVTFPRP,0.00537
21,RRIRIRPPRLPRPRPRPRCGPRP,0.0437
22,RRIRKRPPRLPRPRPRPIGGPRP,-0.494

row,Sequence,shrunken log2 fold change
1,RRIRHRPPRLPRPRPRPCFAPRP,0.0434
2,RRIRHRPPRLPRPRPRPNHMPRP,0.124
3,RRIRKRPPRLPRPRPRPWHQPRP,-0.0165
4,RRIRMRPPRLPRPRPRPFYEPRP,0.027
5,RRIRTRPPRLPRPRPRPDQDPRP,-0.0328
6,RRIRGRPPRLPRPRPRPSINPRP,-0.0752
7,RRIRCRPPRLPRPRPRPNWGPRP,-0.0514
8,RRIRHRPPRLPRPRPRPQYDPRP,-1.12
9,RRIRHRPPRLPRPRPRPAPSPRP,0.709
10,RRIRYRPPRLPRPRPRPQRFPRP,-0.0259
11,RRIRYRPPRLPRPRPRPYQYPRP,-1.05
12,RRIRKRPPRLPRPRPRPAVNPRP,-0.0383
13,RRIRIRPPRLPRPRPRPAMTPRP,-0.366
14,RRIRFRPPRLPRPRPRPMKMPRP,-0.0224
15,RRIRERPPRLPRPRPRPQWSPRP,0.0836
16,RRIRLRPPRLPRPRPRPIHLPRP,-0.453
17,RRIRFRPPRLPRPRPRPHTMPRP,-0.459
18,RRIRYRPPRLPRPRPRPWSHPRP,-0.05
19,RRIRKRPPRLPRPRPRPLRMPRP,0.236
20,RRIRHRPPRLPRPRPRPFTIPRP,-0.0345
21,RRIRSRPPRLPRPRPRPIQCPRP,0.0235
22,RRIRRRPPRLPRPRPRPLHKPRP,-0.191

row,Sequence,shrunken log2 fold change
1,RRIRDRPPRLPRPRPRPYWWPRP,0.021
2,RRIRPRPPRLPRPRPRPSNNPRP,-0.542
3,RRIRKRPPRLPRPRPRPASYPRP,-0.0778
4,RRIRRRPPRLPRPRPRPWTFPRP,-0.103
5,RRIRRRPPRLPRPRPRPCYSPRP,-0.00167
6,RRIRCRPPRLPRPRPRPESIPRP,-0.263
7,RRIRARPPRLPRPRPRPTRSPRP,0.258
8,RRIRMRPPRLPRPRPRPEGQPRP,-0.00185
9,RRIRFRPPRLPRPRPRPYCCPRP,-0.324
10,RRIRERPPRLPRPRPRPINDPRP,-0.223
11,RRIRSRPPRLPRPRPRPGTHPRP,-0.146
12,RRIRYRPPRLPRPRPRPPMWPRP,0.53
13,RRIRARPPRLPRPRPRPPKPPRP,0.689
14,RRIRERPPRLPRPRPRPEDHPRP,-0.111
15,RRIRGRPPRLPRPRPRPFNQPRP,-0.28
16,RRIRGRPPRLPRPRPRPPQIPRP,0.859
17,RRIRERPPRLPRPRPRPAKSPRP,0.0676
18,RRIRDRPPRLPRPRPRPSSYPRP,-0.738
19,RRIRVRPPRLPRPRPRPDSCPRP,-0.115
20,RRIRFRPPRLPRPRPRPDEMPRP,-0.0134
21,RRIRYRPPRLPRPRPRPPQDPRP,-0.362
22,RRIRVRPPRLPRPRPRPANAPRP,-0.0677

row,Sequence,shrunken log2 fold change
1,RRIRPRPPRLPRPRPRPWKNPRP,-0.0413
2,RRIRIRPPRLPRPRPRPWYRPRP,-0.678
3,RRIRDRPPRLPRPRPRPFWRPRP,0.0187
4,RRIRPRPPRLPRPRPRPDCKPRP,-0.133
5,RRIRWRPPRLPRPRPRPIPQPRP,0.254
6,RRIRHRPPRLPRPRPRPWKLPRP,-0.185
7,RRIRVRPPRLPRPRPRPRCCPRP,0.201
8,RRIRVRPPRLPRPRPRPRIPPRP,0.183
9,RRIRPRPPRLPRPRPRPRMLPRP,0.00647
10,RRIRWRPPRLPRPRPRPQDTPRP,-0.0161
11,RRIRPRPPRLPRPRPRPQGQPRP,0.0372
12,RRIRTRPPRLPRPRPRPEPFPRP,0.0259
13,RRIRARPPRLPRPRPRPSMLPRP,0.0741
14,RRIRYRPPRLPRPRPRPQVSPRP,-0.849
15,RRIRYRPPRLPRPRPRPNHCPRP,0.00938
16,RRIRMRPPRLPRPRPRPDCQPRP,1.37
17,RRIRQRPPRLPRPRPRPGWAPRP,0.113
18,RRIRWRPPRLPRPRPRPKWAPRP,0.507
19,RRIRCRPPRLPRPRPRPPLDPRP,0.616
20,RRIRSRPPRLPRPRPRPKREPRP,0.393
21,RRIRMRPPRLPRPRPRPISIPRP,-0.313
22,RRIRWRPPRLPRPRPRPKALPRP,0.237

row,Sequence,shrunken log2 fold change
1,RRIRGRPPRLPRPRPRPEFGPRP,0.797
2,RRIRRRPPRLPRPRPRPHKPPRP,-0.176
3,RRIRKRPPRLPRPRPRPESGPRP,0.918
4,RRIRWRPPRLPRPRPRPYLAPRP,-0.211
5,RRIRKRPPRLPRPRPRPKHSPRP,-0.147
6,RRIRMRPPRLPRPRPRPMKMPRP,0.803
7,RRIRIRPPRLPRPRPRPIEAPRP,-0.01
8,RRIRMRPPRLPRPRPRPSLLPRP,0.0721
9,RRIRVRPPRLPRPRPRPYRQPRP,-0.479
10,RRIRQRPPRLPRPRPRPDCWPRP,-0.0539
11,RRIRLRPPRLPRPRPRPYIAPRP,-0.261
12,RRIRNRPPRLPRPRPRPVVGPRP,0.392
13,RRIRLRPPRLPRPRPRPHIGPRP,-0.0255
14,RRIRWRPPRLPRPRPRPNTPPRP,0.144
15,RRIRDRPPRLPRPRPRPPQMPRP,0.746
16,RRIRKRPPRLPRPRPRPFASPRP,0.193
17,RRIRLRPPRLPRPRPRPCLHPRP,-0.113
18,RRIRMRPPRLPRPRPRPHGHPRP,0.256
19,RRIRMRPPRLPRPRPRPDWFPRP,0.235
20,RRIRRRPPRLPRPRPRPPVQPRP,0.366
21,RRIRYRPPRLPRPRPRPRGGPRP,0.139
